From article PMC2944808 (2010)

Target: T1, Chordin VWC2 (UniProt Q9H2X0)
T1 chain: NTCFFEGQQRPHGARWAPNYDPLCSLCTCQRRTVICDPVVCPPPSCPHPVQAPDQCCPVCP
Assay: SPR

Kd: 5 nM
B1: Crossveinless-2 (protein)
chain: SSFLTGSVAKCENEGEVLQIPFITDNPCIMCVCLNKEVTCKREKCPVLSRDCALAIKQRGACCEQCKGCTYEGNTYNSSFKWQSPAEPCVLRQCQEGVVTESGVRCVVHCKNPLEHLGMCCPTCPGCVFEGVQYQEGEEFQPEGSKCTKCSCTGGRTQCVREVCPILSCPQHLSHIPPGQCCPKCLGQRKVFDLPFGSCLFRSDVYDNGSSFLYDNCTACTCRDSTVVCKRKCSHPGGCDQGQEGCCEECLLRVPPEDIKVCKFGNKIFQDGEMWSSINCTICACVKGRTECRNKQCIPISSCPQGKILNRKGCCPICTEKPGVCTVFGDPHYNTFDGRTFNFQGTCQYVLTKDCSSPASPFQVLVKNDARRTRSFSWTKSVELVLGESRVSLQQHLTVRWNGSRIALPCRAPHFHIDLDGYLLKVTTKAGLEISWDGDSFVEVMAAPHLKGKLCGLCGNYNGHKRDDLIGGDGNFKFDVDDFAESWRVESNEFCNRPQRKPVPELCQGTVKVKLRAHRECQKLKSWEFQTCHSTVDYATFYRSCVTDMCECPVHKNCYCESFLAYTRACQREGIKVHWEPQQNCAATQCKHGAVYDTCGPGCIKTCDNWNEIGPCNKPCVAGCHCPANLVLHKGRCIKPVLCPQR
